This is an account of results in patent US20070036793A1, “Methods for use of an lkb1/strad7mo25 complex” (priority 2003, published 2007).

Where no end group is shown, it is not given here. The star is where a group is joined. C6spacer = spacer between biotin and the peptide; Biotin = O=C1N[C@H]2[C@H](CS[C@H]2CCCCC(=O)*)N1

The subject of data set [1] is T1, SIK FGNFYKSGEPLSTWCGSPPYRRR
T1 sequence: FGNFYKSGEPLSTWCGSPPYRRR
Put plainly: kinetic analysis of peptide phosphorylation by the LKB1:STRAD:MO25 complex, nonlinear regression.

Data set [2] deals with T2, MELK AKPKGNKDYHLQTCCGSLAYRRR
T2 sequence: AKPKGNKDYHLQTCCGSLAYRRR
The description is as above.

Data set [3] relates to T3, BRSK2 MASLQVGDSLLETSCGSPHYRRR
T3 sequence: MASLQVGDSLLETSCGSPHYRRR
The description is as above.

The test system of data set [4] is T4, MARK3 FSNEFTVGGKLDTFCGSPPYRRR
T4 sequence: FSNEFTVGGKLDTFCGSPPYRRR
The description is as above.

For data set [5], the system named is peptide derived from the T-loop of AMPKα1 (Example 4, FIG. 26A).
The subject of data set [6] is T1, SIK FGNFYKSGEPLSTWCGSPPYRRR
In data set [7] the test system is T2, MELK AKPKGNKDYHLQTCCGSLAYRRR
Data set [8] has as its system T3, BRSK2 MASLQVGDSLLETSCGSPHYRRR
For data set [9], the system named is T4, MARK3 FSNEFTVGGKLDTFCGSPPYRRR
The subject of data set [10] is T5, LKBtide peptide (NUAK2 T-loop peptide).
T5 sequence: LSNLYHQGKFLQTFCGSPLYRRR

Data set [11] addresses T6, bacterially expressed MO25α (human, UniProt Q9Y376 1-341).
T6 construct: Expressed as GST fusion from pGEX-6T in E. coli BL21; GST tag cleaved off; also called MO25α protein (E. coli)
T6 sequence: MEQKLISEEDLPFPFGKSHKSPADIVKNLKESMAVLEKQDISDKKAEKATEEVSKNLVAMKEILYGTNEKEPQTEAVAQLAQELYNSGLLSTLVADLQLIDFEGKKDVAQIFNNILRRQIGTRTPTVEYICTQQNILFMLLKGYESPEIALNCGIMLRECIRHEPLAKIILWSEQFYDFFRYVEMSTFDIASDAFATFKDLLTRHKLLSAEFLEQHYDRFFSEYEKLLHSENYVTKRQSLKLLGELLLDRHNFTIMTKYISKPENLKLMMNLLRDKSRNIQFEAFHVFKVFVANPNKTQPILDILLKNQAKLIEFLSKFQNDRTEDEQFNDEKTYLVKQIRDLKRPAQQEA
Put plainly: SPR (BiaCore 3000), biotinylated STRADα-C12 peptide on streptavidin chip, MO25α 6.25-3200 nM, steady-state fit. The protocol: 5 μg of the total cell lysates prior to affinity purification were also subjected to immunoblotting with anti-Myc antibody to ensure that Myc-MO25α was expressed at similar levels in each condition (lower panel). (B) 0.5 mg of the indicated cell lysates was incubated with 5 μg of an N-terminal biotinylated peptide encompassing either the C-terminal 12 residues STRADα conjugated to streptavidin-Sepharose ([…], termed STRADα-C12) or mutants of this peptide in which the indicated residues were individually mutated to Ala. Following isolation and washing of the beads, the samples were subjected to SDS-polyacrylamide gel electrophoresis and immunoblotted with an anti-MO25α antibody. (C) Binding of bacterially expressed MO25α to the indicated peptides was analysed by surface plasmon resonance BiaCore analysis as described in Materials and Methods. […] WEF-C12 corresponds to […], WEA-C12 corresponds to […], AEF-C12 corresponds to […], WAF-C12 corresponds to […], WEF-C6 corresponds to VDDWEF.
Biacore analysis. Binding was analysed in a BiaCore 3000 system (BiaCore AB, Stevenage, UK). The indicated biotinylated peptides were bound to a streptavidin-coated Sensor chip (SA) (20 response units, RU). […] Dissociation of MO25α from each peptide was monitored over a 1 min period. […]
In general terms: In SPR one partner is held on a chip, and binding of the other changes the refractive index at the surface.

Substrate in data set [12]: CC(C)C[C@H](NC(=O)[C@H](CC(N)=O)NC(=O)[C@H](CO)NC(=O)[C@@H](N)CC(C)C)C(=O)N[C@@H](Cc1ccc(O)cc1)C(=O)N[C@@H](Cc1c[nH]cn1)C(=O)N[C@@H](CCC(N)=O)C(=O)NCC(=O)N[C@@H](CCCCN)C(=O)N[C@@H](Cc1ccccc1)C(=O)N[C@@H](CC(C)C)C(=O)N[C@@H](CCC(N)=O)C(=O)N[C@H](C(=O)N[C@@H](Cc1ccccc1)C(=O)N[C@@H](CS)C(=O)NCC(=O)N[C@@H](CO)C(=O)N1CCC[C@H]1C(=O)N[C@@H](CC(C)C)C(=O)N[C@@H](Cc1ccc(O)cc1)C(=O)N[C@@H](CCCNC(=N)N)C(=O)N[C@@H](CCCNC(=N)N)C(=O)N[C@@H](CCCNC(=N)N)C(=O)O)[C@@H](C)O
The data set is described as follows: Kinetic analysis of phosphorylation of T-loop peptides by the LKB1:STRAD:MO25 complex (Example 4). The data set is classed as biochemical. Conditions: other: phosphorylation by LKB1 complex, nonlinear regression; pH 7.5; 30.0 °C. The protocol:
FIG. 26. Identification of peptide substrates for LKB1. (A) Kinetic analysis of the phosphorylation of the indicated T-loop by the LKB1:STRAD:MO25 complex was performed. The T-loop Thr residue in each peptide is underlined and in boldface type and 3 Arg residues were added to the C-terminus of each T-loop peptide to enable their capture on phosphocellulose p81 paper. Km and Vmax values were determined from nonlinear regression. (B) An aliquot of each peptide phosphorylated by LKB1 complex was subjected to solid phase Edman sequencing and ^32P-radioactivity was measured after each cycle of Edman degradation. […] The results are expressed as the peptide kinase activity generated per mg of LKB1:STRAD:MO25 added to the assay. […]
Measurement of activation of AMPK-related kinases AMPKα1 catalytic subunit and AMPK-related kinases was measured following their phosphorylation with LKB1 as follows. […] After incubation at 30° C. for the times indicated in the figure legend, AMPKα1 catalytic domain or AMPK-related kinase activities were determined by adding 30 μl of 5 mM magnesium acetate, 0.1 mM [γ-^32P]-ATP (300 cpm/pmol) and 200 μM AMARA peptide (AMARAASAAALARRR (Dale et al., 1995)) as substrate. […] Kinetic data was analysed according to the Michaelis-Menten relationship by non-linear regression using the computer program GraphPad Prism (GraphPad Software Inc, San Diego, USA). […]

B1: LKB1:STRAD:MO25 complex (Example 4, FIG. 26A) (enzyme, part only; not given: STRAD and MO25 subunits, GST)
chain: MDVADPEPLGLFSEGELMSVGMDTFIHRIDSTEVIYQPRRKRAKLIGKYLMGDLLGEGSYGKVKEVLDSETLCRRAVKILKKKKLRRIPNGEANVKKEIQLLRRLRHRNVIQLVDVLYNEEKQKMYMVMEYCVCGMQEMLDSVPEKRFPVCQAHGYFRQLIDGLEYLHSQGIVHKDIKPGNLLLTTNGTLKISDLGVAEALHPFAVDDTCRTSQGSPAFQPPEIANGLDTFSGFKVDIWSAGVTLYNITTGLYPFEGDNIYKLFENIGRGDFTIPCDCGPPLSDLLRGMLEYEPAKRFSIRQIRQHSWFRKKHPLAEALVPIPPSPDTKDRWRSMTVVPYLEDLHGRAEEEEEEDLFDIEDGIIYTQDFTVPGQVLEEEVGQNGQSHSLPKAVCVNGTEPQLSSKVKPEGRPGTANPARKVCSSNKIRRLSACKQQ
The Km is the substrate concentration at which the rate is half of its maximum. On to B1, for which, in data set [1], the Michaelis-Menten constant (Km) was found to be 460 µM. Besides, the Km in data set [2] is > 3000 µM. Besides, the Km in data set [3] amounted to 400 µM. The Km in data set [4] was found to be 620 µM. Also, in data set [5], the “Km (phosphorylation of the T-loop peptide)” value is given as “(Km, 1.4 mM)”; the Vmax of phosphorylation of the AMPK T-loop peptide by the complex is 94.1 U/mg; the Vmax/Km for the AMPK T-loop peptide (Vmax in U/mg, Km in mM) was found to be 67. Moreover, in data set [6], the Vmax of phosphorylation of the SIK T-loop peptide by the complex worked out at 63.9 U/mg and the Vmax/Km for the SIK T-loop peptide (Vmax in U/mg, Km in mM) is 139. Besides, the Vmax of phosphorylation of the MELK T-loop peptide by the complex in data set [7] is > 60 U/mg. Also, in [8], the Vmax of phosphorylation of the BRSK2 T-loop peptide by the complex came out at 10.6 U/mg and the Vmax/Km for the BRSK2 T-loop peptide (Vmax in U/mg, Km in mM) came to 26. For the same molecule, in data set [9], the Vmax of phosphorylation of the MARK3 T-loop peptide by the complex was 10.2 U/mg and the Vmax/Km for the MARK3 T-loop peptide (Vmax in U/mg, Km in mM) was determined as 16. Besides, in data set [10], the Vmax of phosphorylation of the NUAK2 T-loop peptide by the complex worked out at 86.8 U/mg and the Vmax/Km for the NUAK2 T-loop peptide (Vmax in U/mg, Km in mM) amounted to 578.

B2: STRADα-C12 peptide (Biotin-C6spacer-NLEELEVDDWEF) (peptide)
peptide: {Biotin-C6spacer}-NLEELEVDDWEF
notes: also called WEF-C12; C-terminal 12 residues of STRADα
A word on the Kd: it is a measure of binding affinity in units of concentration. Low values mean a tighter complex, high ones a looser complex. Regarding B2, in data set [11], the affinity, expressed as Kd, was 850 nM.

B3: LKB1:STRAD:MO25 complex (Mus musculus) (protein)
chain: MDVADPEPLGLFSEGELMSVGMDTFIHRIDSTEVIYQPRRKRAKLIGKYLMGDLLGEGSYGKVKEVLDSETLCRRAVKILKKKKLRRIPNGEANVKKEIQLLRRLRHRNVIQLVDVLYNEEKQKMYMVMEYCVCGMQEMLDSVPEKRFPVCQAHGYFRQLIDGLEYLHSQGIVHKDIKPGNLLLTTNGTLKISDLGVAEALHPFAVDDTCRTSQGSPAFQPPEIANGLDTFSGFKVDIWSAGVTLYNITTGLYPFEGDNIYKLFENIGRGDFTIPCDCGPPLSDLLRGMLEYEPAKRFSIRQIRQHSWFRKKHPLAEALVPIPPSPDTKDRWRSMTVVPYLEDLHGRAEEEEEEDLFDIEDGIIYTQDFTVPGQVLEEEVGQNGQSHSLPKAVCVNGTEPQLSSKVKPEGRPGTANPARKVCSSNKIRRLSAC
notes: Constructs expressing the full length wild type and kinase dead mouse LKB1 have been described previously; made in house; host or cells: 293 cells, co-transfected
For the molecule B3, in [12], the Michaelis-Menten constant (Km) came out at 150 µM.
